Measured values as given in US20180044415A1 (AbbVie / Abbott, published 2018).

T1: human DLL3 (immobilized human DLL3 or h293-hDLL3 cells) (human, UniProt Q9NYJ7 27-492, limits assumed)
T1 construct: the sentence says 'immobilized human DLL3 or h293-hDLL3 cells'
T1 sequence: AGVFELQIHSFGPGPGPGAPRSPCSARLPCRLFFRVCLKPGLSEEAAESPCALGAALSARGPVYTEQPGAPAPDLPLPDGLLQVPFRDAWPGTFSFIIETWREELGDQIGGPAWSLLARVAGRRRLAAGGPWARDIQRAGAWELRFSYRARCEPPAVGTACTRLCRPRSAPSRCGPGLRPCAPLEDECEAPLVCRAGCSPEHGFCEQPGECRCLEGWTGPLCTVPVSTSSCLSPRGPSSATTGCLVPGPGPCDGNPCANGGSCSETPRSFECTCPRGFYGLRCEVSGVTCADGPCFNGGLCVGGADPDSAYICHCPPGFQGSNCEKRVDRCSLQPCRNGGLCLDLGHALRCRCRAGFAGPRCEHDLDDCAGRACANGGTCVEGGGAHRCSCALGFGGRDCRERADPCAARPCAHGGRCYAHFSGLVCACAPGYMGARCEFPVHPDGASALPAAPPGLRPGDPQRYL


Molecular target: T1, human DLL3 (immobilized human DLL3 or …)
Assay: hybridoma screening on immobilized human DLL3 or on h293-hDLL3 cells

Row | Binder | binding result
1 | SC16.80 (antibody, V domains shown, murine mAb; variable regions only) VH: EVQLQQSGPELVKPGGSKKISCKASGYSFTGYSMNWVKQSHGKNLEWIGLINPYSGGTIYNQKFKGKATLTVDKSSSTAYMELLSLTSEDSAVYYCARRSDYPLVYWGQGTLVTVSA VL: ETTVTQSPASLSMAIGEKVTIRCITSTDIDDDMIWYQQKPGEPPKLLISEGNTLRPGVPSRFSSSGYGTDFVFTIENMLSEDVADYYCLKRDDLPYTFGGGTQVEIK | binds
2 | SC16.111 (antibody, V domains shown, murine mAb; variable regions only) VH: EVQLQQSGPELEKPGASVKISCKASGYSFTGYNMNWVKQSNGKSLEWIGNIDPYYGGSSYKQKFEGKATLTVDKSSSTAYMQLKSLTSEDSAVYYCARGGSNFFDYWGQGTTLTVSS VL: DIQMTQSPASLAASVGETVTITCRASENIYYSLAWYQQKQGKSPQLLIYNANSLEDGVPSRFSGSGSGTQYSMKINSMQPEDTATYFCKQTYDVPLTFGAGTKLELK | binds
3 | SC16.84 (antibody, V domains shown, murine mAb; variable regions only) VH: EVQLQQSGPELVKPGASMKISCKASGYSFTGYTMNWVKQSHGKNLEWIGLINPYNGGTTYNQKFKGKATLTVDKSSSTAYMELLSLTSEDSAVYYCALGYYGNYRRYFDVWGAGTTVTVSS VL: DIQMTQSPSSLSASLGGKVTITCKASQDIKKYIAWYQHKPGKGPRLLIHYTSTLEPGIPSRFSGSGSGRDYSFSISNLEPEDIATYYCLQYDILWTFGGGTKLEIK | binds
4 | SC16.110 (antibody, V domains shown, murine mAb; variable regions only) VH: EVQLQQSGPGLVRTGASVKISCKASGYSFTGYYMHWVKQSHGKSLEWIGYISCYNGATTYNQNFKGKATFIVDTSSSTAYMQFNSLTSEDSAVYYCARSDGGHAMDYWGQGTSVTVSS VL: NIVMTQTPKFLLVSAGDRVTITCKASQSVSNDVAWYQQKPGQSPKLLIYYASNRYTGVPDRFTGSGYGTDFTFTISTVQAEDLAVYFCQQDYSSPPTFGGGTKLEIK | binds
5 | SC16.116 (antibody, V domains shown, murine mAb; variable regions only) VH: QVQLKQSGPGRVQPSQSLSITCTVSGFSLTSNGVHWVRQSPGKGLEWLGVLWSGGSTDYNAAFISRLSISKDNYKSQVFFKMNSLQANDTAIYYCARNNNRYGAMDYWGQGTSVTVSS VL: DIVMTQSPSSLTVTAGEKVTMSCTSSQSLLTSGNQKNYLTWYQQKPGQPPKLLIYWASTRESGVPDRFTGSGSGTDFTLTISSLQAEDLAVYYCQNDYSLTFGAGTKLELK | binds
6 | SC16.104 (antibody, V domains shown, murine mAb; variable regions only) VH: QVQLKESGPDLVQPSQTLSLTCTVSGFSLTFYGVHWVRQPPGKGLEWVGTMGWDDKKYYNSALKSRLSISRDTSKNQVFLKLSSLQTEDTAMYYCTRGGTGFDYWGQGTTLTVSS VL: QIVLSQSPAILSASPGEKVTMTCRASSSVSYIHWYRQKPGSSPKPWIYATSNLASGVPARFSGSGSGTSYSLTISRVEAEDAATYYCQQWSSNPPTFGAGTKLELK | binds
7 | SC16.114 (antibody, V domains shown, murine mAb; variable regions only) VH: EVQLQQSGAELVKPGASVKLSCTASGFNIKDTYIHWVKQRPEQGLEWIGRIDPANGNTKYDPKFQGKATITPDTSSNTAYLQLSSLTSEDTAVYYCARSWRNYGSSFWYFDVWGAGTTVTVSS VL: QIVLSQSPAILSASPGEKVTMTCRASSSVSYMHWYQQKPGSSPKPWIYATSNLASGVPARFSGSGSGTSYSLTISRVEAEDAATYYCQQWSSNPYTFGGGTKLEIK | binds
8 | SC16.105 (antibody, V domains shown, murine mAb; variable regions only) VH: QVQLQQPGAELVKPGASVKLSCKASGYTFTSYWMHWVKQRPGQGLEWIGVINPSNGRTNYNEKFKSKATLTVDKSSSTAYMQLSSLTSEDSAVYYCARRRELGTLYAMDYWGQGTSVTVSS VL: DIVMTQSHKFMSTSVGDRVSITCKASQDVGTAVAWYQQKPGQSPKLLIYWASIRHTGVPDRFTGSGSGTDFTLTISNVQSEDLADYFCQQYSSYPLTFGAGTKLELK | binds
9 | SC16.109 (antibody, V domains shown, murine mAb; variable regions only) VL: QIVLTQSPAIMSASPGEKVTMTCSASSSVSYMYWYQQKPGSSPRLLIYDTSNLASGVPVRFSGSGSGTSFSLTISRMEAEDTATYYCQEWSGNPLTFGDGTKLELK V domain: QIQLVQSGPELKKPGETVKISCKASGYTFTNYGMNWVKQAPGKGLKWMGWINTYTGEPAYADDFKGRFAFSLETSASAAYLQINNLKNEDTATFFCANMRPTRGFAYWGQGTLGTVSA | binds
10 | SC16.78 (antibody, V domains shown, murine mAb; variable regions only) VH: EVKLVESGGGLVKPGGSLKLSCAASGFTFGRYVMSWVRQTPEKKLEWVASITSGGTTYYPDSVKGRFTISRDNARNILYLQMSSLRSEDTAMYYCARVYYHYDDIFAYWGQGTLVTVSA VL: DIKMTQSPSSMYASLGERVTITCKASQDINSYLSWFQQKPGRSPKTLIYRANRLVDGVPSRFSGSGSGQDYSLTISSLDYEDMGIYYCLQYDEFPFTFGSGTKLEIK | binds
11 | SC16.106 (antibody, V domains shown, murine mAb; variable regions only) VH: QVQLKQSGPGLVAPSQSLFITCTVSGFSLTSYEINWVRQPPGKGLEWLGVIWTGGSTNYNSALISRLSISKDNSKSLVFLKMNSLQTDDTAIYYCVRGVYAMDYWGQGTSVTVSS VL: DIKMTQSPSSMYASLGERVTITCKASQDINSYLSWFQQKPGKSPKTLIYRANRLVDGVPSRFSGSGSGQDYSLTISSLEYEDMGIYYCLQYDEFPFTFGSGTKLEIK | binds
12 | SC16.113 (antibody, V domains shown, murine mAb; variable regions only) VH: DVKLVESGGGLVKPGGSLKLSCAASGFTFSSYTMSWVRQTPEKRLEWVATISSGGSYPYYPDSVKGRFTISRDNAKNTLYLQMSSLKSEDTAMYYCTRDVYDGYSYWGQGTTLTVSS VL: not shown | binds
13 | SC16.115 (antibody, V domains shown, murine mAb; variable regions only) VH: DVKLVESGGGLVKPGGSLKLSCAASGFTFSSYTMSWVRQTPEKRLEWVATISSGGSYPYYPDSVKGRFTISRDNAKNTLYLQMSSLKSEDTAMYYCTRDVYDGYSYWGQGTTLTVSS VL: not shown | binds
14 | SC16.88 (antibody, V domains shown, murine mAb; variable regions only) VH: QVQLQQSGAELARPGASVKLSCKASGYTCTSYWMQWVKQRPGQGLEWIGAIYPGDGDTRYTQKFKGKATLTADKSSSTAYMQLSSLASEDSAVYYCARGRRTEAWFAYWGQGTLVTVSA VL: not shown | binds
15 | SC16.81 (antibody, V domains shown, murine mAb; variable regions only) VH: QVQLKESGPVLVAPSQSLSITCTVSGFSLTSYGVHWVRQPPGKGLEWLGVIWAGGSTNYNSALMSRLSISKDNSKSQVFLKMNSLQTDDTAMYYCAKQGNFYAMDYWGQGTSVTVSS VL: QIVLTQSPAIMSASLGERVTLTCTASSSVSSSYLHWYQQKPGSSPKLWIYSTSNLASGVPTRFSGSGSGTSYSLRISSMEAEDAATYYCHQYNRSPLTFGAGTKLELK | binds
16 | SC16.117 (antibody, V domains shown, murine mAb; variable regions only) VH: QVQLKESGPGLVAPSQSLSITCTVSGFSLTNYGVHWVRQPPGKGLEWLGVIWAGGITNYNSALMSRLSISEDNSKSQVFLKMNSLQTDDTAMYYCARNLGPYAMDYWGQGTSVTVSS VL: DIQMNQSPSSLSASLGDTITITCHVSQNINVWLSWYQQKPGNIPKLLIQKASNLHTGVPSRFSGSGSGTGFTLTISSLQPEDIATYYCQQGQSYPFTFGSGTKLEIK | binds
17 | SC16.101 (antibody, V domains shown, murine mAb; variable regions only) VL: QIVLTQSPAIMSASLGERVTMTCTASSSVSSSYLHWYQQKPGSSPKLWIYSTSNLASGVPARFSGSESGTSYSLTISNMEAEDAATYYCHQYHRSPFTFGSGTKLEIK V domain: QVTLKESGPGILQPSQTLSLTCSFSGFSLSTSGMGVGWIRQPSGKGLEWLAHIWWDDVKRYNPALKSRLTISKDASSSQVFLKIASVDTAETATYYCAHILDRAYYFDYWGQGTTLTVTS | binds
18 | SC16.103 (antibody, V domains shown, murine mAb; variable regions only) VH: QVTLKESGPGILKPSQTLSLTCSFSGFSLSTSGMGIGWIRQPSGKGLEWLAHIWWDDDKYYNPSLKSQLTISKDSSRNQVFLKITSVDTADTATYYCARRGTAYYFDYWGQGTTLTVSS VL: DIVLTQSPASLAVSLGQRATISCRASKSVSTSGYSYMHWYQQKPGQPPKLLIYLASNLESGVPARFSGSGSGTDFTLNIHPVEEEDAATYYCQHSRELPLTFGAGTKLELK | binds
19 | SC16.107 (antibody, V domains shown, murine mAb; variable regions only) VH: EVQLQQSGPELVKPGASVKMSCKASGYTFTNYVMHWVKQKPGQGLEWIGYINPYNDGTKYNEKFKGKATLTSDKSSTTAYMALSSLTSEDSAVYYCAVAYYSNWGFAYWGQGTLVTVSA VL: DIVMTQSHKFMSTSVGDRVSITCKASQDVNTAVGWYQQKPGQSPKLLIYSASYRYTGVPDRFTGSGSGTDFTFTISSVQAEDLAVYYCQQHYSSPYTFGGGTKVEIK | binds
20 | SC16.139 (antibody, V domains shown, murine mAb; variable regions only) VH: EVQLQQSGPELVKPGASVKMSCKASGYTFTNYVMHWVKQKPGQGLEWIGYINPYNDGTKYNEKFKGKATLTSDKSSTTAYMALSSLTSEDSAVYYCAVAYYSNWGFAYWGQGTLVTVSA VL: DIVMTQSHKFMSTSVGDRVSITCKASQDVNTAVGWYQQKPGQSPKLLIYSASYRYTGVPDRFTGSGSGTDFTFTISSVQAEDLAVYYCQQHYSSPYTFGGGTKLEIK | binds
21 | SC16.79 (antibody, V domains shown, murine mAb; variable regions only) VH: EVQLQQSGPELVKPGASVKISCKTSGYTFTEYTMHWVKQSHGKSLEWIGGINPNNGGTSYNQKFKGKATLTVDKSSSTAYMELRSLTSEDSAVYYCARGPAWFAYWGQGTLVTVSA VL: DIVMSQSPSSLAVSAGEKVTMSCKSSQSLLNSRTRKNYLAWYQQKPGQSPKLLIYWASTRESGVPDRFTGSGSGTDFTLTISSVQAEDLAVYYCKQSYNLYTFGGGTKLKIK | binds
